# Data taken from patent publication US20180369374A1 (published 2018).
# T1: OX40R on mouse CD4+ T-cells (mouse, UniProt P47741 20-272)
# T1 sequence (looked up): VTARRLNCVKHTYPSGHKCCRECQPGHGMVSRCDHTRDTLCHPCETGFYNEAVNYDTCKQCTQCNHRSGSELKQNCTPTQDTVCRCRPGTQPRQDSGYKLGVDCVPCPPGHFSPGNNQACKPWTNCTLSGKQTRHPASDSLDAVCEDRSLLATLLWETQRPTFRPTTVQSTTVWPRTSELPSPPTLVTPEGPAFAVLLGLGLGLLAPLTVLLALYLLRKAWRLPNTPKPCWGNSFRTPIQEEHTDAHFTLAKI
# Legend:
# [1] = biological target: T1, OX40R on mouse CD4+ T-cells; assay: cell-based or functional assay
# [2] = biological target: T2, mCTLA-4-His (Life Technologies) (mouse, UniProt P09793 36-162, limits assumed); assay: ELISA, HeLa supernatant on mCTLA-4-His-coated plates, HRP-goat anti-mouse IgG Fc detection
# T2 construct: Bought reagent coated on ELISA plates; also called CTLA-4-coated plates; not shown: His tag
# Method: The following mRNAs encoding anti-CTLA-4 antibody heavy and light chains (HC and LC mRNAs) were designed and assayed for expression by measuring both CTLA-4-bound antibody and total IgG produced (FIG. 1): (1) 9D9 VH:mIgG2a (IgG2a^a allele) plus 9D9 VL:mIgGk; and (2) 9D9 VH:mIgG2b plus 9D9 VL:mIgGk. HeLa cells were transfected in 6-well plates with mRNA formulated in Lipofectamine 2000. Cell supernatants were harvested at 18 hours post transfection. Supernatants were assayed for binding to CTLA-4-coated plates (mCTLA-4-His (Life Technologies)) and detection was with HRP-Goat anti-mouse IgG Fc, 1:10000 (JIR). Purified 9D9 antibody (BioXcell) was used for the standard curve in the CTLA-4-binding ELISA. The Mouse IgG total ELISA Ready-SET-Go® assay (eBioscience) was used for quantitating total mouse IgG, with a mouse IgG internal standard.
"mouse IL-2 production by CD4+ T-cells co-cultured with OX40L-expressing B16F10 cells (IL-2 ELISA), against mock-treated or non-translated mRNA control [1]",binding result [2],Binder
~2 fold,–,murine OX40L polypeptide expressed from mOX40L_miR122 on B16F10 cells (ligand) MEGEGVQPLDENLENGSRPRFKWKKTLRLVVSGIKGAGMLLCFIYVCLQLSSSPAKDPPIQRLRGAVTRCEDGQLFISSYKNEYQTMEVQNNSVVIKCDGLYIIYLKGSFFQEVKIDLHFREDHNPISIPMLNDGRRIVFTVVASLAFKDKVYLTVNAPDTLCEHLQINDGELIVVQLTPGYCAPEGSYHSTVNQVPL
–,binds,"9D9 IgG2a antibody (9D9 VH:mIgG2a (IgG2a^a allele) plus 9D9 VL:mIgGk), mRNA-encoded (antibody, Full heavy and light chains expressed from mRNA in HeLa cells, tested as cell supernatant; The entries are whole ORFs and may include a signal peptide; also called HC-2Aa:LC; 9D9 2a) heavy: EAKLQESGPVLVKPGASVKMSCKASGYTFTDYYMNWVKQSHGKSLEWIGVINPYNGDTSYNQKFKGKATLTVDKSSSTAYMELNSLTSEDSAVYYCARYYGSWFAYWGQGTLITVSTAKTTAPSVYPLAPVCGDTTGSSVTLGCLVKGYFPEPVTLTWNSGSLSSGVHTFPAVLQSDLYTLSSSVTVTSSTWPSQSITCNVAHPASSTKVDKKIEPRGPTIKPCPPCKCPAPNLLGGPSVFIFPPKIKDVLMISLSPIVTCVVVDVSEDDPDVQISWFVNNVEVHTAQTQTHREDYNSTLRVVSALPIQHQDWMSGKEFKCKVNNKDLPAPIERTISKPKGSVRAPQVYVLPPPEEEMTKKQVTLTCMVTDFMPEDIYVEWTNNGKTELNYKNTEPVLDSDGSYFMYSKLRVEKKNWVERNSYSCSVVHEGLHNHHTTKSFSRTPGK light: DIVMTQTTLSLPVSLGDQASISCRSSQSIVHSNGNTYLEWYLQKPGQSPKLLIYKVSNRFSGVPDRFSGSGSGTDFTLKISRVEAEDLGVYYCFQGSHVPYTFGGGTKLEIKRADAAPTVSIFPPSSEQLTSGGASVVCFLNNFYPKDINVKWKIDGSERQNGVLNSWTDQDSKDSTYSMSSTLTLTKDEYERHNSYTCEATHKTSTSPIVKSFNRNEC"
–,binds,"9D9 IgG2b antibody (9D9 VH:mIgG2b plus 9D9 VL:mIgGk), mRNA-encoded (antibody, Full heavy and light chains expressed from mRNA in HeLa cells, tested as cell supernatant; The entries are whole ORFs and may include a signal peptide; also called HC-2B:LC; 9D9 2b) heavy: EAKLQESGPVLVKPGASVKMSCKASGYTFTDYYMNWVKQSHGKSLEWIGVINPYNGDTSYNQKFKGKATLTVDKSSSTAYMELNSLTSEDSAVYYCARYYGSWFAYWGQGTLITVSTAKTTPPSVYPLAPGCGDTTGSSVTLGCLVKGYFPESVTVTWNSGSLSSSVHTFPALLQSGLYTMSSSVTVPSSTWPSQTVTCSVAHPASSTTVDKKLEPSGPISTINPCPPCKECHKCPAPNLEGGPSVFIFPPNIKDVLMISLTPKVTCVVVDVSEDDPDVQISWFVNNVEVHTAQTQTHREDYNSTIRVVSTLPIQHQDWMSGKEFKCKVNNKDLPSPIERTISKIKGLVRAPQVYILPPPAEQLSRKDVSLTCLVVGFNPGDISVEWTSNGHTEENYKDTAPVLDSDGSYFIYSKLNMKTSKWEKTDSFSCNVRHEGLKNYYLKKTISRSPGK light: DIVMTQTTLSLPVSLGDQASISCRSSQSIVHSNGNTYLEWYLQKPGQSPKLLIYKVSNRFSGVPDRFSGSGSGTDFTLKISRVEAEDLGVYYCFQGSHVPYTFGGGTKLEIKRADAAPTVSIFPPSSEQLTSGGASVVCFLNNFYPKDINVKWKIDGSERQNGVLNSWTDQDSKDSTYSMSSTLTLTKDEYERHNSYTCEATHKTSTSPIVKSFNRNEC"
